According to paper PMC2885457:
Like-named read-outs stand apart in the source and are kept apart here.

How the values were obtained:
[1] = target: Giardia lamblia tryptophanyl-tRNA synthetase (Giardia lamblia (strain WB)); assay: SEC
[2] = target: Giardia lamblia tryptophanyl-tRNA synthetase (Giardia lamblia (strain WB)); assay: SEC; remark: listed apart in the source

- stoichiometry N [1]: 2
- stoichiometry N [2]: 2
Substance: Giardia lamblia tryptophanyl-tRNA synthetase (enzyme)
